The assay addresses hIK1 intermediate conductance, calcium-activated potassium channel (human) (UniProt O15554). Nature of the assay: cell-based or functional assay.

hIK1 intermediate conductance, calcium-activated potassium channel (human), sequence (O15554 other isoform, or with tags, fused parts or gaps): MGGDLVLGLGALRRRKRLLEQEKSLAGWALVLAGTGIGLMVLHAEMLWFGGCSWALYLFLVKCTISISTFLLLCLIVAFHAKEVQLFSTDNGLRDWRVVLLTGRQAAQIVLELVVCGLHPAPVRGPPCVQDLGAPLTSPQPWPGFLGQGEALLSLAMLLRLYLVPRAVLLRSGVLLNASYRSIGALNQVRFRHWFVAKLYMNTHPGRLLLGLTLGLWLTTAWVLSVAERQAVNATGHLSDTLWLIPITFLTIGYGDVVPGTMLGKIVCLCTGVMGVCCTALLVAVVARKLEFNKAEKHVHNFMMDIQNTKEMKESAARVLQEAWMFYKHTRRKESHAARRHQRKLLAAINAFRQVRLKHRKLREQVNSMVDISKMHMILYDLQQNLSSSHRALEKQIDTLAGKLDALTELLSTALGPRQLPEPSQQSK
iberiotoxin, sequence (P24663 whole entry): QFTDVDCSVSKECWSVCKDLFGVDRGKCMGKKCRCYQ

In the case of “iberiotoxin (from UniProt P24663 1-37) (peptide)”, the percent block of hIK1 current at 50 nM IBX came out at 15%.
